Laboratory results as given in patent US20170283484A1.

These substances were tested against HCV E2 envelope glycoprotein (hepatitis C virus) (UniProt P27958) (assay: ELISA of E2 on AP33 alanine mutants).
HCV E2 envelope glycoprotein (hepatitis C virus), sequence (P27958 384-746 limits assumed): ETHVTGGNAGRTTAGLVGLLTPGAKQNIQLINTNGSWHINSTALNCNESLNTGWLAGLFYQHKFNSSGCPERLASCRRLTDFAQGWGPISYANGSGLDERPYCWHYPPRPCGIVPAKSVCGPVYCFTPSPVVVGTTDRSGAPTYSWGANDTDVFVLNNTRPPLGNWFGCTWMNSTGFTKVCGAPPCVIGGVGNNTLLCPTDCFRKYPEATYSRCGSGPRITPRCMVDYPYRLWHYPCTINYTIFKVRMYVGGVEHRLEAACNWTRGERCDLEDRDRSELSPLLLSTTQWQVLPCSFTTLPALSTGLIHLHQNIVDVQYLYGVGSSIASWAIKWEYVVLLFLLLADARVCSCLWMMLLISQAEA

Substance | reduction of binding relative to WT AP33 [%]
AP33 mutant FL32A (antibody) | 90
AP33 mutant IH95A (antibody) | 90
AP33 mutant NL91A (antibody) | 90
AP33 mutant WL96A (antibody) | 90
AP33 mutant YH33A (antibody) | 90
AP33 mutant YH58A (antibody) | 90

The substances below were run against AP33 antibody (wild type mouse monoclonal) (assay: peptide inhibition ELISA: antibody pre-incubated with peptide, then transferred to E2-coated plates (competitor: E2) [panel AP33]).
AP33 antibody (wild type mouse monoclonal), sequence (VH, as listed by the source, chain 1 of 2): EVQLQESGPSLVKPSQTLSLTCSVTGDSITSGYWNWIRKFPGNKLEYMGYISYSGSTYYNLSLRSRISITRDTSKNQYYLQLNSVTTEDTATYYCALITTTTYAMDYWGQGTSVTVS
AP33 antibody (wild type mouse monoclonal), sequence (VL, as listed by the source, chain 2 of 2): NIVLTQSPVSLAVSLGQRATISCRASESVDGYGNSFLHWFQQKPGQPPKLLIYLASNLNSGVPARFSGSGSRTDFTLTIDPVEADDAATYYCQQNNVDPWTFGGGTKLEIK

Substance | IC50 (read off the curve) [µg/mL]
peptide corresponding to the WT AP33 epitope (aa residues 412-424 of E2) (from UniProt P27958 412-424) | 0.1
